IntAct's records for PubMed 23353685

B1: Beta-arrestin-1 (Homo sapiens), P49407 (parent)
chain: MGDKGTRVFKKASPNGKLTVYLGKRDFVDHIDLVDPVDGVVLVDPEYLKERRVYVTLTCAFRYGREDLDVLGLTFRKDLFVANVQSFPPAPEDKKPLTRLQERLIKKLGEHAYPFTFEIPPNLPCSVTLQPGPEDTGKACGVDYEVKAFCAENLEEKIHKRNSVRLVIRKVQYAPERPGPQPTAETTRQFLMSDKPLHLEASLDKEIYYHGEPISVNVHVTNNTNKTVKKIKISVRQYADICLFNTAQYKCPVAMEEADDTVAPSSTFCKVYTLTPFLANNREKRGLALDGKLKHEDTNLASSTLLREGANREILGIIVSYKVKVKLVVSRGGLLGDLASSDVAVELPFTLMHPKPKEEPPHREVPENETPVDTNLIELDTNDDDIVFEDFARQRLKGMKDDKEEEEDGTGSPQLNNR

Variants of: B1
Details: with gnas1_human GNAS

effect of a mutation on the interaction | Variant
decreasing interaction | L33K
